# Test results published in patent US9873883B2, “Glyphosate resistant plants and associated methods” (Dow AgroSciences LLC, priority 2012, dated 2018).
# Substrate: C=C(OP(=O)(O)O)C(=O)O
# Experiment: In vitro kinetic assay (inorganic phosphate production, malachite green)
# Type: biochemical, Brassica napus
# Conditions: other: pH 7.5, 1 mM S3P
# Description: (§1) The following Class I enzymes: DGT-1 from Glycine max, DGT-3 from Brassica napus (GENBANK ACC NO: P17688), and DGT-7 from Triticum aestivum (GENBANK ACC NO: EU977181) were used as a comparison. The Class I EPSP synthase enzymes and mutant variants thereof were synthesized and evaluated. A mutation introduced into the plant EPSP synthase enzymes consisted of the Glycine to Alanine mutation made within the EPSP synthase enzyme at a similar location as that of the G96A mutation from the E. coli version of the enzyme. In addition, Threonine to Isoleucine and Proline to Serine mutations were introduced within these Class I EPSP synthase enzymes at analogous positions as that of amino acid 97 (T to I) and amino acid 101 (P to S) in the EPSP synthase of E. coli as described in Funke et al., (2009).
# (§2) The location of the amino acid residue which was mutated from glycine to alanine is indicated by the first asterisk. The location of the amino acid residue which was mutated from threonine to isoleucine is indicated by the second asterisk. The location of the third amino acid residue which was mutated from proline to serine is indicated by the third asterisk. These mutations were introduced into different versions of DGT-1, DGT-3, and DGT-7. The different versions of the genes which contain the mutations are described in more detail below.
# (§3) Additional constructs containing the dgt-1, dgt-3 and dgt-7 were synthesized. These constructs were used for in vitro testing of the dgt-1 v5, dgt-1 v6, dgt-1 v7, dgt-1 v8, dgt-3 v6, dgt-3 v7, dgt-3 v8, dgt-7 v5, dgt-7 v6, dgt-7 v7, and dgt-7 v8 gene sequences were outsourced to GeneArt for synthesis and cloning. The synthesized genes were cloned into the pET28 expression vector. The resulting constructions were labeled as pDAB102028 containing dgt-1 v5, pDAB102029 containing dgt-1 v6, pDAB102032 containing dgt-1 v7, pDAB102034 containing dgt-1 v8, pDAB100429 containing dgt-3 v6, pDAB100442 containing dgt-3 v7, pDAB100430 containing dgt-3 v8, pDAB102036 containing dgt-7 v5, pDAB102038 containing dgt-7 v6, pDAB102040 containing dgt-7 v7, and pDAB102042 containing dgt-7 v8.
# (§4) Recombinant DGT proteins were overexpressed in Rosetta2™ (DE3) cells (Novagen, Madison, Wis.) from the constructs described above. A single colony was used to inoculate 50 mL starter cultures of LB containing chloramphenicol (25 μg/mL) and kanamycin (50 μg/mL) which were cultivated overnight at 37° C. The overnight cultures were used to inoculate 1 L of LB containing chloramphenicol (25 μg/mL) and kanamycin (50 μg/mL). The cultures were grown at 37° C. to an O.D.600=0.6 then placed in an ice water bath for 10 minutes. Expression of the target proteins was achieved by addition of IPTG to a final concentration of 500 μM. Induction was allowed to proceed overnight at 20° C. followed by harvesting via centrifugation at 8,000 rpm for 20 minutes. The cell pellets were stored at −80° C. until required for purification. All purification steps were carried out at 4° C.
# (§5) Cell pellets from 1 L cultures were resuspended in 20-30 mL Buffer A (50 mM HEPES pH 7.5, 150 mM KCl, 2 mM DTT, 1 mM EDTA, 20 mM imidazole, and 5% glycerol). COMPLETE™ protease inhibitor cocktail (1 tablet/50 mL, Roche, Indianapolis, Ind.) and lysozyme (1 mg/mL, Sigma-Aldrich, St. Louis, Mo.) were then added and the suspension was stirred for 20 minutes. Cell lysis was performed using a Branson Sonifier 250 (3×60 second bursts) followed by removal of the cell debris by centrifugation at 16,000 rpm for 45 minutes. […]
Molecule,Km,kcat/Km
"Brassica napus (canola) EPSP synthase DGT-3 (GENBANK P17688) variant DGT-3 v6 (G→A) (Brassica napus; G173A) (protein, made in house; host or cells: E. coli Rosetta2 (DE3)) KASEIVLQPIREISGLIKLPGSKSLSNRILLLAALSEGTTVVDNLLNSDDINYMLDALKKLGLNVERDSVNNRAVVEGCGGIFPASLDSKSDIELYLGNAATAMRPLTAAVTAAGGNASYVLDGVPRMRERPIGDLVVGLKQLGADVECTLGTNCPPVRVNANGGLPGGKVKLSGSISSQYLTALLMAAPLALGDVEIEIIDKLISVPYVEMTLKLMERFGVSAEHSDSWDRFFVKGGQKYKSPGNAYVEGDASSASYFLAGAAITGETVTVEGCGTTSLQGDVKFAEVLEKMGCKVSWTENSVTVTGPSRDAFGMRHLRAVDVNMNKMPDVAMTLAVVALFADGPTTIRDVASWRVKETERMIAICTELRKLGATVEEGSDYCVITPPAKVKPAEIDTYDDHRMAMAFSLAACADVPVTIKDPGCTRKTFPDYFQVLESITKH",1073.4 µM,13900 M⁻¹ s⁻¹
"Brassica napus (canola) EPSP synthase DGT-3 (GENBANK P17688) variant DGT-3 v7 (G→A, P→S; GAPS) (Brassica napus; G173A/P178S) (protein, made in house; host or cells: E. coli Rosetta2 (DE3)) KASEIVLQPIREISGLIKLPGSKSLSNRILLLAALSEGTTVVDNLLNSDDINYMLDALKKLGLNVERDSVNNRAVVEGCGGIFPASLDSKSDIELYLGNAATAMRSLTAAVTAAGGNASYVLDGVPRMRERPIGDLVVGLKQLGADVECTLGTNCPPVRVNANGGLPGGKVKLSGSISSQYLTALLMAAPLALGDVEIEIIDKLISVPYVEMTLKLMERFGVSAEHSDSWDRFFVKGGQKYKSPGNAYVEGDASSASYFLAGAAITGETVTVEGCGTTSLQGDVKFAEVLEKMGCKVSWTENSVTVTGPSRDAFGMRHLRAVDVNMNKMPDVAMTLAVVALFADGPTTIRDVASWRVKETERMIAICTELRKLGATVEEGSDYCVITPPAKVKPAEIDTYDDHRMAMAFSLAACADVPVTIKDPGCTRKTFPDYFQVLESITKH",2728.3 µM,2280 M⁻¹ s⁻¹
"Brassica napus (canola) EPSP synthase DGT-3 (GENBANK P17688) variant DGT-3 v8 (T→I, P→S; TIPS) (Brassica napus; P178S/T174I) (protein, made in house; host or cells: E. coli Rosetta2 (DE3)) KASEIVLQPIREISGLIKLPGSKSLSNRILLLAALSEGTTVVDNLLNSDDINYMLDALKKLGLNVERDSVNNRAVVEGCGGIFPASLDSKSDIELYLGNAGIAMRSLTAAVTAAGGNASYVLDGVPRMRERPIGDLVVGLKQLGADVECTLGTNCPPVRVNANGGLPGGKVKLSGSISSQYLTALLMAAPLALGDVEIEIIDKLISVPYVEMTLKLMERFGVSAEHSDSWDRFFVKGGQKYKSPGNAYVEGDASSASYFLAGAAITGETVTVEGCGTTSLQGDVKFAEVLEKMGCKVSWTENSVTVTGPSRDAFGMRHLRAVDVNMNKMPDVAMTLAVVALFADGPTTIRDVASWRVKETERMIAICTELRKLGATVEEGSDYCVITPPAKVKPAEIDTYDDHRMAMAFSLAACADVPVTIKDPGCTRKTFPDYFQVLESITKH",196.8 µM,

# Tested on: C=C(OP(=O)(O)O)C(=O)O
# Experiment: purified protein, by the assay type
# Conditions: other: pH 7.5, 1 mM S3P
Molecule,Km,kcat/Km
"Mariprofundus ferrooxydans EPSP synthase DGT-14 v1, native wild type (GENBANK ZP_01452683; SEQ ID NO:17) (Mariprofundus ferrooxydans PV-1)",208.6 µM,
"bacterial EPSP synthase DGT-11 v6, native (GENBANK YP_989551.1), SEQ ID NO:5 (Bartonella bacilliformis INS)",1576.6 µM,50 M⁻¹ s⁻¹
"bacterial EPSP synthase DGT-18 (GENBANK NP_928909.1) variant DGT-18 v6 (G→A at residue 96), SEQ ID NO:9 (Photorhabdus laumondii subsp. laumondii TTO1; G96A)",375.9 µM,40000 M⁻¹ s⁻¹
"bacterial EPSP synthase DGT-29 (GENBANK YP_322772.1) variant DGT-29 v6 (G→A at residue 96), SEQ ID NO:11 (Trichormus variabilis ATCC 29413; G96A)",1502.2 µM,4000 M⁻¹ s⁻¹
"bacterial EPSP synthase DGT-30 (GENBANK ZP_02156189.1) variant DGT-30 v6 (G→A at residue 96), SEQ ID NO:13 (Shewanella benthica KT99; G96A)",414.9 µM,30000 M⁻¹ s⁻¹

# Substrate: C=C(OP(=O)(O)O)C(=O)O
# Experiment: In vitro kinetic assay (inorganic phosphate production, malachite green)
# Type: biochemical, Glycine max
# Conditions: other: pH 7.5, 1 mM S3P
# Remark: another data set of the same source
# Description: as §1, §2, §3, §4, §5
Molecule,Km,kcat/Km
Glycine max (soybean) EPSP synthase DGT-1 variant DGT-1 v6 (G→A) (Glycine max; G182A) (protein) MASVAAAEKPSTSPEIVLEPIKDFSGTITLPGSKSLSNRILLLAALSEGTTVVDNLLYSEDIHYMLGALRTLGLRVEDDKTTKQAIVEGCGGLFPTSKESKDEINLFLGNAATAMRPLTAAVVAAGGNASYVLDGVPRMRERPIGDLVAGLKQLGADVDCFLGTNCPPVRVNGKGGLPGGKVKLSGSVSSQYLTALLMAAPLALGDVEIEIVDKLISVPYVEMTLKLMERFGVSVEHSGNWDRFLVHGGQKYKSPGNAFVEGDASSASYLLAGAAITGGTITVNGCGTSSLQGDVKFAEVLEKMGAKVTWSENSVTVSGPPRDFSGRKVLRGIDVNMNKMPDVAMTLAVVALFANGPTAIRDVASWRVKETERMIAICTELRKLGATVEEGPDYCVITPPEKLNVTAIDTYDDHRMAMAFSLAACGDVPVTIKDPGCTRKTFPDYFEVLERLTKH,608.2 µM,13400 M⁻¹ s⁻¹
"Glycine max (soybean) EPSP synthase DGT-1 variant DGT-1 v8 (T→I, P→S; TIPS) (Glycine max; P187S/T183I) (protein) MASVAAAEKPSTSPEIVLEPIKDFSGTITLPGSKSLSNRILLLAALSEGTTVVDNLLYSEDIHYMLGALRTLGLRVEDDKTTKQAIVEGCGGLFPTSKESKDEINLFLGNAGIAMRSLTAAVVAAGGNASYVLDGVPRMRERPIGDLVAGLKQLGADVDCFLGTNCPPVRVNGKGGLPGGKVKLSGSVSSQYLTALLMAAPLALGDVEIEIVDKLISVPYVEMTLKLMERFGVSVEHSGNWDRFLVHGGQKYKSPGNAFVEGDASSASYLLAGAAITGGTITVNGCGTSSLQGDVKFAEVLEKMGAKVTWSENSVTVSGPPRDFSGRKVLRGIDVNMNKMPDVAMTLAVVALFANGPTAIRDVASWRVKETERMIAICTELRKLGATVEEGPDYCVITPPEKLNVTAIDTYDDHRMAMAFSLAACGDVPVTIKDPGCTRKTFPDYFEVLERLTKH",151.4 µM,
"Glycine max (soybean) EPSP synthase DGT-1 variant DGT-1 v7 (G→A, P→S; GAPS) (Glycine max; G182A/P187S) (protein) MASVAAAEKPSTSPEIVLEPIKDFSGTITLPGSKSLSNRILLLAALSEGTTVVDNLLYSEDIHYMLGALRTLGLRVEDDKTTKQAIVEGCGGLFPTSKESKDEINLFLGNAATAMRSLTAAVVAAGGNASYVLDGVPRMRERPIGDLVAGLKQLGADVDCFLGTNCPPVRVNGKGGLPGGKVKLSGSVSSQYLTALLMAAPLALGDVEIEIVDKLISVPYVEMTLKLMERFGVSVEHSGNWDRFLVHGGQKYKSPGNAFVEGDASSASYLLAGAAITGGTITVNGCGTSSLQGDVKFAEVLEKMGAKVTWSENSVTVSGPPRDFSGRKVLRGIDVNMNKMPDVAMTLAVVALFANGPTAIRDVASWRVKETERMIAICTELRKLGATVEEGPDYCVITPPEKLNVTAIDTYDDHRMAMAFSLAACGDVPVTIKDPGCTRKTFPDYFEVLERLTKH",1291.2 µM,6670 M⁻¹ s⁻¹
